Measurements published in publication PMC13483476 (2026).

Target: 5768-p27 V3 peptide (HIV-1 clade B isolate 5768-p27)
Experiment: SPR

B1: 19b antigen-binding fragment (Fab) (Fab, V domains shown)
VH: EVQLVQSGGALIQPGGSLRLSCAASGFTFVDYAMSWVRQAPGKGLQWVSTIIGSGADTYYTDSVKGRFTISRDNSNNTVHLQMNSLRADDTALYYCVRGVFDLWGQGTLVTVSS
VL: DIVLTQSPPSLSASVGDRVTITCQASQDISDHLSWFQQKPGKAPKLLVYGVSSLEAGVPSRFSVSGSGTHFTFTVNGLQPEDLATYFCQQYDDLPWTFGPGTVVEVK
Work on B1 yielded a koff of 0.000147 s⁻¹.
